Measured values: paper PMC7998030

Tests used:
[1] = target: JF646-labeled Mcm2-7 (MCM) hexamer on DNA after incubation with ORC, Cdc6 and ATP (S. cerevisiae) (UniProt P29469); test: single-molecule fluorescence colocalisation on optically trapped DNA (confocal microscopy, bleaching-step counting); bulk incubation of 5 nM ORC, 10 nM Cdc6, 100 nM MCM-Cdt1 with 1 nM 21.2 kbp DNA in 5 mM ATP for 30 min at 30°C, diluted 1000x, injected into the flow cell and imaged, no high-salt wash; all proteins on DNA
[2] = target: JF646-labeled Mcm2-7 (MCM) hexamer on DNA after incubation with ORC, Cdc6 and ATP (S. cerevisiae) (UniProt P29469); test: single-molecule fluorescence colocalisation on optically trapped DNA (confocal microscopy, bleaching-step counting); bulk incubation of 5 nM ORC, 10 nM Cdc6, 100 nM MCM-Cdt1 with 1 nM 21.2 kbp DNA in 5 mM ATP for 30 min at 30°C, then high-salt wash (500 mM NaCl) in the flow cell before imaging; MCM hexamer with MCM hexamer (double hexamer) on DNA

percent of MCM-only foci with two or more MCMs [1]: 52%
percent of foci with 2 MCM after high-salt wash [2]: 24%
stoichiometry N [2]: 2
Substance: JF646-labeled Mcm2-7 (MCM) hexamer on DNA after incubation with ORC, Cdc6 and ATP, P29469 1-868; P24279 1-971; P30665 1-933; P29496 1-775; P53091 1-1017; P38132 1-845
